Laboratory results as given in FireProtDB (doi:10.1021/bi048926x).
“And” between values parts separate entries of the source, which are not always exact repeats. Identical values can stand only once.

B1: Azurin, P00282 (parent)
chain: MLRKLAAVSLLSLLSAPLLAAECSVDIQGNDQMQFNTNAITVDKSCKQFTVNLSHPGNLPKNVMGHNWVLSTAADMQGVVTDGMASGLDKDYLKPDDSRVIAHTKLIGSGEKDSVTFDVSKLKEGEQYMFFCTFPGHSALMKGTLTLK

Variants of: B1
Conditions: Pseudomonas aeruginosa (strain ATCC 15692 / DSM 22644 / CIP 104116 / JCM 14847 / LMG 12228 / 1C / PRS 101 / PAO1), pH 7, Thermal, reversible: No, structure 5AZU, whole UniProt chain shown
[1] = DSC, Potassium phosphate 100 mM

| Variant | Tm (Absorbance, Phosphate 10 mM) [°C] | change of melting temperature, mutant - wild type (higher = more stable) (Absorbance, Phosphate 10 mM) [°C] | change of melting temperature, mutant - wild type (higher = more stable) [1] | unfolding enthalpy (calorimetric) [1] |
| --- | --- | --- | --- | --- |
| MLRKLAAVSLLSLLSAPLLAAECSVDIQGNDQMQFNTNAITVDKSCKQFTVNLSHPGNLPKNVMGHNWVLSTAADMQGVVTCGMASGLDKDYLCPDDSRVIAHTKLIGSGEKDSVTFDVSKLKEGEQYMFFCTFPGHSALMKGTLTLK [D82C K94C] | 78 | 0 | – | – |
| MLRKLAAVSLLSLLSAPLLAAECSVDIQGNDQMQFNTNAITVERSCKQFTVNLSHPGNLPKNVMGHNWVLSTAADMQGVVTDGMASGLDKDYLKPDDSRVIAHTKLIGSGEKDSVTFDVSKLKEGEQYMFFCTFPGHSALMKGTLTLR [D43E K148R K44R] | 75 | -3 | -1.2 °C and -0.9 °C and -1.1 °C | – |
| MLRKLAAVSLLSLLSAPLLAAECSVDIQGNDQMQFNTNAITVDRSCKQFTVNLSHPGNLPKNVMGHNWVLSTAADMQGVVTDGMASGLDKDYLKPDDSRVIAHTKLIGSGEKDSVTFDVSKLKEGEQYMFFCTFPGHSALMKGTLTLK [K44R] | 76 | -2 | 0.8 °C and 0.6 °C and 1 °C | 124 kcal/mol and 150 kcal/mol and 75.5 kcal/mol |
| MLRKLAAVSLLSLLSAPLLAAECSVDIQGNDQMQFNTNAITVEKSCKQFTVNLSHPGNLPKNVMGHNWVLSTAADMQGVVTDGMASGLDKDYLKPDDSRVIAHTKLIGSGEKDSVTFDVSKLKEGEQYMFFCTFPGHSALMKGTLTLR [D43E K148R] | 74 | -4 | – | 89.2 kcal/mol and 108 kcal/mol and 122 kcal/mol |
